Data from the Human Domainome abundance scans (Beltran et al. 2025).

B1: Intersectin-2, residues 1129 to 1183; numbered along this chain, Q9NZM3 (parent)
chain: VCQVIAMYDYAANNEDELSFSKGQLINVMNKDDPDWWQGEINGVTGLFPSNYVKM

Variants of: B1
Assay: abundance fitness (aPCA) (normalised: wild type 0, dead -1); higher = more abundant; growth selection in yeast, the domain comes from the species named
Conditions: Homo sapiens

Abundance fitness: each site, then its substitutions
D33: A -0.065, T -0.023, L -0.077, W -0.237, M -0.12, C 0.042, H 0.103, G -0.043, E -0.009, I -0.112, P -0.287, R -0.015, S -0.037, F -0.24, N -0.034, V -0.092
N27: Q 0.012, C -0.046, Y -0.081, S -0.05, G -0.122, P -0.351, V -0.098, W -0.123, R -0.037, M -0.02, T -0.043, I -0.015, L -0.07, E 0.039, K -0.052, H -0.089, F -0.112
I26: G -0.821, N -0.719, W -0.971, P -0.925, T -0.88, M -0.232, L -0.065, R -0.951, E -0.789, D -0.857, Y -0.657, V -0.089, K -0.972, A -0.961, H -1.07, F -0.085
D32: R -0.049, Q 0.046, C -0.089, W -0.086, F -0.205, T -0.075, M -0.043, A -0.042, N 0.021, H -0.18, L -0.11, K -0.007, P 0.084, S -0.063, Y -0.077
D35: I 0.03, H -0.048, N -0.032, C -0.167, L -0.029, M -0.1, F -0.085, K -0.071
M29: P -0.496, S -0.039, W -0.053, N -0.187, G -0.065, E -0.006, L -0.013, Y -0.18, K -0.075, C -0.022, I -0.036, D -0.077, Q -0.125, V -0.001, T 0.014, H -0.06, A -0.016, R -0.014
V28: M -0.155, A -0.371, Q -1.04, I 0.006, S -0.94, F -0.778, R -0.718, C -0.077, N -1.01, W -0.963, L -0.048, K -1.04, E -0.996, G -0.937, Y -0.87, P -0.882
P34: V -0.033, I -0.071, Q 0.029, T -0.009, L -0.079, M -0.015, N 0.036, K 0.055, C -0.195, Y -0.147, G -0.028, W -0.161, D -0.01, A 0.005, S -0.013, E 0.03, H -0.194, R -0.018
K31: I 0.029, W -0.138, D -0.044, Q -0.039, H -0.148, V 0.22, R -0.061, C 0.138, G -0.031, A 0.173, F -0.039, E 0.006, Y -0.103, T 0.102
N30: K -0.001, T -0.034, I -0.135, F -0.09, S -0.028, L -0.021, V -0.045, C 0.005, R -0.019, D -0.087, Y -0.117, H -0.01, M -0.025, P -0.688, E -0.046, W -0.16, G -0.04, A -0.002, Q 0.019
L25: T -0.059, Q -0.089, N -0.054, Y -0.115, S -0.01, M 0.031, W -0.098, P -0.126, V -0.011, K -0.064
